One block for each molecule: values may come before it.
Tests used:
[1] = target: RNF43 (Homo sapiens) (UniProt Q68DV7); experiment: ITC; settings: cited from earlier work
[2] = target: RNF43 (Homo sapiens) (UniProt Q68DV7); experiment: ITC; settings: cited from earlier work; remark: listed apart in the source
[3] = target: T1, ZNRF3 ectodomain with C-terminal biotin acceptor peptide (C-BAP) tag, biotinylated in vivo (mouse, UniProt Q5SSZ7 53-216, biotin on the biotin acceptor peptide tag (in-vivo biotinylation by BirA)); experiment: SPR; IBIS MX96; biotinylated ZNRF3 immobilised on a G-streptavidin sensor chip at different ligand densities; analytes flowed in 25 mM HEPES pH 8.0, 150 mM NaCl, 25 °C; equilibrium dose-response, global fit to a 1:1 binding model; settings: both partners purified
T1 construct: ZNRF3 ectodomain; also called Biotinylated ZNRF3; source: HEK293-E cells, co-expressed with biotin ligase (BirA); not shown: biotin acceptor peptide (BAP), C-terminal, kept
T1 sequence (looked up): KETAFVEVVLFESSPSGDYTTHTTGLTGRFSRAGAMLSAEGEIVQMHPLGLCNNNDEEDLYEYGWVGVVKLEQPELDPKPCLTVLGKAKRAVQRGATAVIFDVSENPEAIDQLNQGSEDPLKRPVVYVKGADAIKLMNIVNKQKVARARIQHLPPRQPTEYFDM

RNF43 (Homo sapiens), sequence (Q68DV7 24-197): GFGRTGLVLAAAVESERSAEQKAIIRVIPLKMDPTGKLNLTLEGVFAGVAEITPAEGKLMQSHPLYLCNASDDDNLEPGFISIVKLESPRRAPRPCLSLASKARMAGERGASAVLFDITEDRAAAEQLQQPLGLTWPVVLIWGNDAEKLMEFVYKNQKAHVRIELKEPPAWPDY

Molecule: RSPO1 (from UniProt Q2MKA7)
Kd [1]: 750 nM
Kd [2]: 8500 nM

Kd [3]: 1900 nM
B1: R-spondin 1 (RSPO1) furin-like domains Fu1 and Fu2 (domain or fragment)
chain: RISAEGSQACAKGCELCSEVNGCLKCSPKLFILLERNDIRQVGVCLPSCPPGYFDARNPDMNKCIKCKIEHCEACFSHNFCTKCKEGLYLHKGRCYPACPEGSSAANGTMECSSPA
notes: R-spondin 1, fragment consisting of the Fu1 and Fu2 domains; source: HEK 293E (EBNA) cells, purified (Ni-NTA, gel filtration); as described previously [18]

Source: publication PMC3861454, “Structures of Wnt-Antagonist ZNRF3 and Its Complex with R-Spondin 1 and Implications for Signaling” (PLoS ONE, 2013)
